Data published in patent US20190134153A1, “IMMUNOMODULATORY EFFECT OF INHALED KINASE INHIBITOR PEPTIDES IN LUNG” (MOERAE MATRIX, INC., priority 2017, published 2019).

Columns and labels:
Experiment in all cases: Kinase Profiling Assay
Type in all cases: biochemical
Conditions in all cases: 100 μM
Tie2(h) = Tie2(h) (Homo sapiens, UniProt Q02763)
CDK2/cyclinE(h) = CDK2/cyclinE(h) (Homo sapiens, UniProt P24941)
GSK3α(h) = GSK3α(h) (Homo sapiens, UniProt P49840)
CK2(h) = CK2(h) (Homo sapiens, UniProt P68400)
VRK2(h) = VRK2(h) (Homo sapiens, UniProt Q86Y07)
p70S6K(h) = p70S6K(h) (Homo sapiens, UniProt P23443)
Abl(h) = Abl(h) (Homo sapiens, UniProt P00519)
IKKβ(h) = target: T1, IKKβ(h) (Homo sapiens, UniProt O14920)
T1 sequence (O14920 1-756): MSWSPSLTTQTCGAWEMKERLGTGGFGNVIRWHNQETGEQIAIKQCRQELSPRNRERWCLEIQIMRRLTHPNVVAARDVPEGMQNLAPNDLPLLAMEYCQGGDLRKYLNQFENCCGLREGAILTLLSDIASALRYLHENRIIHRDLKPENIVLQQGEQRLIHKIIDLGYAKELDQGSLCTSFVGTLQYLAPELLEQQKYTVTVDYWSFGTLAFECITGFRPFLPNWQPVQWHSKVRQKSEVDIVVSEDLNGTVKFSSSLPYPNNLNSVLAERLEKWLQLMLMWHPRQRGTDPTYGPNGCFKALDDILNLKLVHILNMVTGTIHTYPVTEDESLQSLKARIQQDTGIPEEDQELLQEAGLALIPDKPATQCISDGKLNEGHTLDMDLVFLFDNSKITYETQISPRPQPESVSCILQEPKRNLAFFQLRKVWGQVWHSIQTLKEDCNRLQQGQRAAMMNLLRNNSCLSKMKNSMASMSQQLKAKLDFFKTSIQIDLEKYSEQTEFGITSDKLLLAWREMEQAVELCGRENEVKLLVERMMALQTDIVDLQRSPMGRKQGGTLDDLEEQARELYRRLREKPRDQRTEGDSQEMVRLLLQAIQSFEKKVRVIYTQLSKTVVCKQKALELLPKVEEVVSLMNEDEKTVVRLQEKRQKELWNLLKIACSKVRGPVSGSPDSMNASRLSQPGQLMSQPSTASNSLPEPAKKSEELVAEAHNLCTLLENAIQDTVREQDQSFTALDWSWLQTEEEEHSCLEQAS

SRPK1(h) = SRPK1(h) (Homo sapiens, UniProt Q96SB4)
Tec(h) activated = target: T2, Tec(h) activated (Homo sapiens, UniProt P42680)
T2 sequence (P42680 1-631): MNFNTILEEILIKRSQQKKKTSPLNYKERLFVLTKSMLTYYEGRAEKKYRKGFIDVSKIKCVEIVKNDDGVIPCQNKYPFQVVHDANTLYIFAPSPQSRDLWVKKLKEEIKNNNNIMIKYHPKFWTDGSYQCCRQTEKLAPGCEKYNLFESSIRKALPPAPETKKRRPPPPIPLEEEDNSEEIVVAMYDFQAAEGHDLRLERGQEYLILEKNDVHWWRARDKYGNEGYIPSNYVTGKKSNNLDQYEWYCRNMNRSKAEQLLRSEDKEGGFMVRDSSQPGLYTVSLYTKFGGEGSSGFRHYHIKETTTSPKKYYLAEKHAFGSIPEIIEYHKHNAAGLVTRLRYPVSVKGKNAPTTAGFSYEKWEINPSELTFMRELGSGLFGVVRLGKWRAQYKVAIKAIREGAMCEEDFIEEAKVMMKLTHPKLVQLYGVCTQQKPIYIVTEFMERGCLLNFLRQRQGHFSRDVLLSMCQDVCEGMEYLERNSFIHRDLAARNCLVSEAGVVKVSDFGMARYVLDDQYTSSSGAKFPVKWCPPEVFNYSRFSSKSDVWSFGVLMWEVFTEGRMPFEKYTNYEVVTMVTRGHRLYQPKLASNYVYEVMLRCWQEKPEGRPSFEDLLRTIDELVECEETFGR

MST1(h) = target: T3, MST1(h) (Homo sapiens, UniProt Q13043)
T3 sequence (Q13043 1-487): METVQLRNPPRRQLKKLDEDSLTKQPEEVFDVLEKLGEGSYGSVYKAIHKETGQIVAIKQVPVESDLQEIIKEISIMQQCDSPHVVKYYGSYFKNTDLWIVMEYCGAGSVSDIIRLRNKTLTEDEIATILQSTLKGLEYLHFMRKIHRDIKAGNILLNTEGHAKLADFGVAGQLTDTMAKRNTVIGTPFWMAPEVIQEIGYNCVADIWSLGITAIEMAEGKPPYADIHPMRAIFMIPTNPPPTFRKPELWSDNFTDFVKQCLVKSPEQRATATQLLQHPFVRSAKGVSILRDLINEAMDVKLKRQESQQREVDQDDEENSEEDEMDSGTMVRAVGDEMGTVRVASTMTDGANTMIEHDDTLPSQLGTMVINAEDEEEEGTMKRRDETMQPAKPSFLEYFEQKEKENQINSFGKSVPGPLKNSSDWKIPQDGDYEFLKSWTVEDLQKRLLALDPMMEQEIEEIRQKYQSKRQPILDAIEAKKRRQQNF

TSSK2(h) = target: T4, TSSK2(h) (Homo sapiens, UniProt Q96PF2)
T4 sequence (Q96PF2 1-358): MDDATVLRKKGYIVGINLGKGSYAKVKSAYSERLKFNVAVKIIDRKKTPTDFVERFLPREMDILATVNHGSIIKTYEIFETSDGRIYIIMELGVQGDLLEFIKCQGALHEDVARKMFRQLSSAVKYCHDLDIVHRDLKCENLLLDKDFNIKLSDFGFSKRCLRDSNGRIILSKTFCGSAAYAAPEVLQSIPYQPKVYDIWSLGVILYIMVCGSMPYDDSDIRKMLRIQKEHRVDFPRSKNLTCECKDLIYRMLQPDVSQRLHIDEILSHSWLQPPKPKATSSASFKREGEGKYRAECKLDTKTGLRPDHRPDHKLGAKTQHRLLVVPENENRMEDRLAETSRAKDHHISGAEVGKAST

Lck(h) activated = Lck(h) activated (Homo sapiens, UniProt P06239)
Lck(h) activated, sequence (P06239 whole entry): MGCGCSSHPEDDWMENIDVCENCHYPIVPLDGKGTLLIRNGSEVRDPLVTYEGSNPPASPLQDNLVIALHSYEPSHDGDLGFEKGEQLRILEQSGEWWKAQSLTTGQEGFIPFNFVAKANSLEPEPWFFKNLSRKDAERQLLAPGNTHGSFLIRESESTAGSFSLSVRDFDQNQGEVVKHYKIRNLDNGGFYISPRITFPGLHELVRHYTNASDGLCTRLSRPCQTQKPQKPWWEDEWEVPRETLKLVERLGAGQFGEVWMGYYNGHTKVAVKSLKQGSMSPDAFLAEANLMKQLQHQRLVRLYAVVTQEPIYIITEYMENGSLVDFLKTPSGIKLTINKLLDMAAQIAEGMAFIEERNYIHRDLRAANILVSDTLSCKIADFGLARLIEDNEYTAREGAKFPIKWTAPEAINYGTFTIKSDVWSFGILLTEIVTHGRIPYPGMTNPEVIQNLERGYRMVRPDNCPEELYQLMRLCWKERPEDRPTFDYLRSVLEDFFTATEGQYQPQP

p70S6K(h), sequence (P23443 whole entry): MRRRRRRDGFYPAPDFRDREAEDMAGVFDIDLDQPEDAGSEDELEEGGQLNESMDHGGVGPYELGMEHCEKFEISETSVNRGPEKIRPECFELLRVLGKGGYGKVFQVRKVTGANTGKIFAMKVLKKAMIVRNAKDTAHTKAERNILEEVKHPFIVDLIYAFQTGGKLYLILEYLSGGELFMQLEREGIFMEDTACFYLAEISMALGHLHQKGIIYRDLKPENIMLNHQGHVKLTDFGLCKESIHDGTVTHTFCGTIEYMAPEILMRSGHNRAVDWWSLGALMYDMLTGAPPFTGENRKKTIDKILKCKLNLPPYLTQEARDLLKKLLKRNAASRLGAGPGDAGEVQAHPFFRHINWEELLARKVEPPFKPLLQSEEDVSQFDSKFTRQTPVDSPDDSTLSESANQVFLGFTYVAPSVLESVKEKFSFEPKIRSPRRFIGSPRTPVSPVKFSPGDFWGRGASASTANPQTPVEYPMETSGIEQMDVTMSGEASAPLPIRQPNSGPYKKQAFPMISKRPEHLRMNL
CK2(h), sequence (P68400 whole entry): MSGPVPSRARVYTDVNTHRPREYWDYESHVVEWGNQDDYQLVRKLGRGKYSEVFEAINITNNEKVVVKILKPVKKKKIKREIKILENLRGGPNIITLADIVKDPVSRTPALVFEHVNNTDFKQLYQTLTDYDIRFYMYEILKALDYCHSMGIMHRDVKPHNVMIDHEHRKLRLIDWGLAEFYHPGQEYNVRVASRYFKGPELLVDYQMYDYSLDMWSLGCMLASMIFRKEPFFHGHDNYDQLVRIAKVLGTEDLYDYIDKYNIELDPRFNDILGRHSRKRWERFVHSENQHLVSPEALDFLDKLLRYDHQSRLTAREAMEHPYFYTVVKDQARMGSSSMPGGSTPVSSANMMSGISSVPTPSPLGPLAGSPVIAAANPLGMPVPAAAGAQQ
CK2(h), sequence (P67870 whole entry partner): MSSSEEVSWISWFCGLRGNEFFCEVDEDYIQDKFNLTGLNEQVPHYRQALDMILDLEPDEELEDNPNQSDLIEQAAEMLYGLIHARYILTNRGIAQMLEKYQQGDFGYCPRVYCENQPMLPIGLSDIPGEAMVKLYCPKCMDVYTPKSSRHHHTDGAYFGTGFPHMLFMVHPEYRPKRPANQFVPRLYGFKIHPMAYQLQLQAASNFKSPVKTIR
Tie2(h), sequence (Q02763 23-1124): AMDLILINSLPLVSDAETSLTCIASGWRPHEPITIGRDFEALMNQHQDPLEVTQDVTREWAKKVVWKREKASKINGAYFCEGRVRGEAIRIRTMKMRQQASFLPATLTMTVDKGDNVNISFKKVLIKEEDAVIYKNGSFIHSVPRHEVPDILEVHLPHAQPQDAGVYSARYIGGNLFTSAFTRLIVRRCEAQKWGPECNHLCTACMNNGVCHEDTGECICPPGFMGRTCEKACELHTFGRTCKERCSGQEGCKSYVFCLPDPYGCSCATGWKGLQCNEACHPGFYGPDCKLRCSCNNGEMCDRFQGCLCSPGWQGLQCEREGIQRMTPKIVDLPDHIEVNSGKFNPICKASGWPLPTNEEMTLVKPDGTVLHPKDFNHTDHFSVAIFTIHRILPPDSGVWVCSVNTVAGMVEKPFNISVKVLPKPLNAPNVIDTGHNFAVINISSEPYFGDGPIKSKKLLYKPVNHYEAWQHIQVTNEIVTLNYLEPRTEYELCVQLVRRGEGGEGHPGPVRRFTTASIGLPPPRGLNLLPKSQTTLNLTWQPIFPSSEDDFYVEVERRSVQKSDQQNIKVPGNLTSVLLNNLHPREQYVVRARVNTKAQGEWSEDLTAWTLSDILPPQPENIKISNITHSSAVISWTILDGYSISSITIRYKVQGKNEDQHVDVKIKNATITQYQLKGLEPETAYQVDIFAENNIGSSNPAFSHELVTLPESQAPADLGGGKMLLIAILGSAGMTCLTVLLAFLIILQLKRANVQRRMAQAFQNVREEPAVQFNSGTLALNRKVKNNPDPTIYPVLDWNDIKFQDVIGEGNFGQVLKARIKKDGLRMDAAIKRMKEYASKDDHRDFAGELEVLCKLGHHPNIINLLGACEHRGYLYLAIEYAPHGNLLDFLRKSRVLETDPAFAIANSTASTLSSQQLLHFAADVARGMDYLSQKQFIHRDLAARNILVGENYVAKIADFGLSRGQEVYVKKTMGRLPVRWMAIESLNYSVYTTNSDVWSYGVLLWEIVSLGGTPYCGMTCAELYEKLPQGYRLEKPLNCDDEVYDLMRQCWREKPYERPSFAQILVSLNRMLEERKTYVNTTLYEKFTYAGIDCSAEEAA
Abl(h), sequence (P00519 whole entry): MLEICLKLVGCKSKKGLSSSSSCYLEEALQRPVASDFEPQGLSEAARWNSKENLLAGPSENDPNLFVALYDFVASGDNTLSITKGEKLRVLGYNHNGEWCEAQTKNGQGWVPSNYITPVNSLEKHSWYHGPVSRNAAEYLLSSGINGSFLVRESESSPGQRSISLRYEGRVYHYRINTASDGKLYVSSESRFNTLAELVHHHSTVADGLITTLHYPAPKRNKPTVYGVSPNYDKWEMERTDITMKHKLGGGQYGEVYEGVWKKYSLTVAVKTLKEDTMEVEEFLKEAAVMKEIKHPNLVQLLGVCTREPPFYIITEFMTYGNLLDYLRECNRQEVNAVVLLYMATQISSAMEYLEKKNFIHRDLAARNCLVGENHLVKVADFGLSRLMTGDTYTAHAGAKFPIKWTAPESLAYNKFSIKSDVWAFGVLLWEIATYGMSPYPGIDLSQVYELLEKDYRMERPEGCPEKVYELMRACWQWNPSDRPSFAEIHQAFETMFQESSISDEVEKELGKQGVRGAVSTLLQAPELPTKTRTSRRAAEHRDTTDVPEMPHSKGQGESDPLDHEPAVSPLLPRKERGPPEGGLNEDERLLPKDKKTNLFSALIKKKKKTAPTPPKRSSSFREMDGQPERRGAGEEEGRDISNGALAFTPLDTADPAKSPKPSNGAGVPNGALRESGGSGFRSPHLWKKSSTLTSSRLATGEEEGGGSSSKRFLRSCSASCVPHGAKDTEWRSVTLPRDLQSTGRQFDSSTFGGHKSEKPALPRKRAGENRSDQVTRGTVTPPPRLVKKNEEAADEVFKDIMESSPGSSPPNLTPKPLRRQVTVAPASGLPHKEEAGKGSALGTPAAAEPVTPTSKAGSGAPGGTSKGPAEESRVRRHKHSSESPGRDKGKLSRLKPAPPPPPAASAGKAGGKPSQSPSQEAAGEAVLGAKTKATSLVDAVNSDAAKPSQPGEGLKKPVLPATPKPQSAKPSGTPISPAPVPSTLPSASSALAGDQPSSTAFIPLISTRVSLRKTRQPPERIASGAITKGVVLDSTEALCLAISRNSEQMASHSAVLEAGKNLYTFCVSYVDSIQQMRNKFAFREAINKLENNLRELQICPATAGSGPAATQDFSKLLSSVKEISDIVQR
SRPK1(h), sequence (Q96SB4 whole entry): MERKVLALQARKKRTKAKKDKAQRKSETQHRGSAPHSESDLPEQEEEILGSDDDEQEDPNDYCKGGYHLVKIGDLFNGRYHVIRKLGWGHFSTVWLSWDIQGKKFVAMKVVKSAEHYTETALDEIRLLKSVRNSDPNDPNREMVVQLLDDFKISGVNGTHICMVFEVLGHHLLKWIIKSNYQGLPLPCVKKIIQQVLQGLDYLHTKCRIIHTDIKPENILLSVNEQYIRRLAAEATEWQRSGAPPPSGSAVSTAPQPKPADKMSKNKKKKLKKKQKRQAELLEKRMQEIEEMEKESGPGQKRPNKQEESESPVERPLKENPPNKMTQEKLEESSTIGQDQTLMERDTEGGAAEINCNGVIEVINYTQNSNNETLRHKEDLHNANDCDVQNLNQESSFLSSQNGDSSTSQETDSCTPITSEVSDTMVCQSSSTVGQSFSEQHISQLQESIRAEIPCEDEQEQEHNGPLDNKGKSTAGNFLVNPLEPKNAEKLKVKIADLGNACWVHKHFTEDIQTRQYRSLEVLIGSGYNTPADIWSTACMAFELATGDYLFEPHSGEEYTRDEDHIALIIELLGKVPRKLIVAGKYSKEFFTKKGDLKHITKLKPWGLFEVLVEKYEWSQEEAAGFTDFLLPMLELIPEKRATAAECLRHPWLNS
GSK3α(h), sequence (P49840 whole entry): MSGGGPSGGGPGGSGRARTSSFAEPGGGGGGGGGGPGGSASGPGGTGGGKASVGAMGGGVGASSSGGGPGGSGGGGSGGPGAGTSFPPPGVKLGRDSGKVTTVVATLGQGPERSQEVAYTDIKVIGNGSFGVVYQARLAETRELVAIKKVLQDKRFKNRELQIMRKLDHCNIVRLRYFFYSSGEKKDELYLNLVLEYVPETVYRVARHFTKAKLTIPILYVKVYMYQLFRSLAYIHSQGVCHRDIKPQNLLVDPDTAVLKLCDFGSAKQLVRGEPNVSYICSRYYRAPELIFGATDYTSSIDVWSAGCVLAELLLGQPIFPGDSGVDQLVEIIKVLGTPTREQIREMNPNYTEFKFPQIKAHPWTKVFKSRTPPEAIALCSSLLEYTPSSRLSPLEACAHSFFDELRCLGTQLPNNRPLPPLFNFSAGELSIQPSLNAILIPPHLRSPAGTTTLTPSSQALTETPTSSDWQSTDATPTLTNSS

| Sequence | % activity (Tie2(h)) | % activity (CDK2/cyclinE(h)) | % activity (GSK3α(h)) | % activity (CK2(h)) | % activity (VRK2(h)) | % activity (p70S6K(h)) | % activity (Abl(h)) | % activity (IKKβ(h)) | % activity (SRPK1(h)) | % activity (Tec(h) activated) | % activity (MST1(h)) | % activity (TSSK2(h)) | % activity (Lck(h) activated) |
| --- | --- | --- | --- | --- | --- | --- | --- | --- | --- | --- | --- | --- | --- |
| FAKLAARLYRKALARQLGVAA [MMI-0300] | 26% | 94% | 157% | 90% | 161% | 35% | 69% | 84% | 90% | 56% | 14% | 98% | 243% |
| HRRIKAWLKKIKALARQLGVAA [MMI-0500] | 22% | 19% | 175% | 93% | 169% | 3% | 16% | 71% | 80% | 33% | 3% | 92% | 76% |
| KAFAKLAARLYRKALARQLGVAA [MMI-0400] | 21% | 83% | 164% | 101% | 185% | 33% | 84% | 84% | 96% | 29% | 6% | 94% | 216% |
| YARAAARQARAKALNRQLGVA [MMI-0200] | 53% |  |  | 83% |  | 84% |  |  | 93% | 77% | 72% | 91% | 90% |
